Reference: patent US20100016234A1, “SIGNAL PEPTIDES, NUCLEIC ACID MOLECULES AND METHODS FOR TREATMENT OF CARIES” (The Governing Council of the University of Toronto, published 2010)

Legend:
[1] = target: T1, S. mutans ComD protein (histidine kinase) (Streptococcus mutans); assay: cell-based or functional assay
T1 chain: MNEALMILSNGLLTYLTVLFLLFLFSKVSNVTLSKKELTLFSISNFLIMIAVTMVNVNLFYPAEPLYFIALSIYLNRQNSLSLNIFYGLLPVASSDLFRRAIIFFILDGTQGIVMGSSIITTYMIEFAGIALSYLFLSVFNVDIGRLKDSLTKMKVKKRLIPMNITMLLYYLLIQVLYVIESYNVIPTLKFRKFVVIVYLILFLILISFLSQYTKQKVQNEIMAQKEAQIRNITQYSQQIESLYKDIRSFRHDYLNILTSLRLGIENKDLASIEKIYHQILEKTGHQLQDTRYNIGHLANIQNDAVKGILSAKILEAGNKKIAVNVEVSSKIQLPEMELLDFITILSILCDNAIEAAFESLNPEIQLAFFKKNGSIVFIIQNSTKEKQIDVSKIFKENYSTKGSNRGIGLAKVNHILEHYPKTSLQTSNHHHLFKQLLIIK

[2] = target: T1, S. mutans ComD protein (histidine …); assay: cell-based or functional assay

Binder | Transformation efficiency (vs no CSP), S. mutans wild-type UA159, 5 µg/ml peptide [1] | Biofilm formation (SDM-glucose), S. mutans UA159, 5 µg/ml peptide [2]
SGSLSTFFVLFNRSFTQALGK [Peptide analog B2] | 4 fold increase (vs no CSP) | 
SGSSTFFRLFNRSFTQALGK [Peptide analog D1] | 275 fold increase (vs no CSP) | 
SGTLSTFFRLFNRSFTQA [Peptide analog B3 (JH1005 CSP sequence)] | 195 fold increase (vs no CSP) | 34.4 % biomass (reduction)
SGSLSTFFRLFNRSFTQAGK [Peptide analog G1] | 848 fold increase (vs no CSP) | 24.4 % biomass (reduction)
SGSLSTFFRLFNVSFTQALGK [Peptide analog D2] | 99 fold increase (vs no CSP) | 
SGSLSTFFRLFNRSFTQALK [Peptide analog F1] | 541 fold increase (vs no CSP) | 36.7 % biomass (reduction)
SGSLSTFFALFNRSFTQALGK [Peptide analog C2] | 32 fold increase (vs no CSP) | 
SGSLTFFRLFNRSFTQALGK [Peptide analog E1] | 791 fold increase (vs no CSP) | 
SGSLSTFFRLFNRSFTQALGV [Peptide analog F2] | 543 fold increase (vs no CSP) | 38.7 % biomass (reduction)
SGSLSTFFRLFNRSFTQALGA [Peptide analog G2] | 56 fold increase (vs no CSP) | 35.6 % biomass (reduction)
SGSLSTFFRLFNRSFTQLGK [Peptide analog H1] | 18 fold decrease (vs no CSP) | 
SGSLSTFFRLFNRSFTALGK [Peptide analog A2] | 125 fold increase (vs no CSP) | 
SGSLSTFFRLFNASFTQALGK [Peptide analog E2] | 252 fold increase (vs no CSP) | 38.9 % biomass (reduction)
SGSLSTFFRLFNRSFTQALGK [S. mutans competence signal peptide (CSP), mature wild-type CSP sequence] | 1550 fold increase (vs no CSP) | 
